How the values were obtained:
[1] = biological target: T1, human IL1RAP on IL1RAP positive human cell lines (EOL-1, Karpas 299; HEK-Blue reporter cells) (human, UniProt Q9NPH3 21-570); experiment: cell-based or functional assay
[2] = biological target: T1, human IL1RAP on IL1RAP positive human …; experiment: cell-based or functional assay; remark: listed apart in the source
[3] = biological target: T1, human IL1RAP on IL1RAP positive human …; experiment: cell-based or functional assay; remark: listed apart in the source
[4] = biological target: T1, human IL1RAP on IL1RAP positive human …; experiment: cell-based or functional assay; remark: listed apart in the source
[5] = biological target: T2, huIL1RAP ECD recombinant protein (human, UniProt Q9NPH3 21-367); experiment: Octet BLI, antibody on Protein A biosensor, recombinant huIL1RAP ECD
T2 construct: also called recombinant human IL1RAP-ECD; recombinant human IL1RAP; not shown: C-terminal histidine tag for purification
Procedure: Affinity: The affinity of antibodies to various recombinant IL1RAP protein was determined on an Octet Red™ instrument. After loading reagents into a 96-well plate, the Octet Red™ with Protein A-conjugated biosensors was programmed as follows: 30 seconds for baseline #1; 120 seconds to immobilize the antibody; 30 seconds for baseline #2; 300 seconds for association of antibody to recombinant IL1RAP; and 300-600 seconds for dissociation of recombinant IL1RAP from the antibody.

[6] = biological target: T3, rat IL1RAP (Met1-Val570 plus Myc-DDK) on transfected 293 cells (Rattus norvegicus, UniProt Q63621 21-570); experiment: flow cytometry on 293 cells expressing rat IL1RAP (293-puro-ratIL1RAP) vs 293T-puro [cont.]
T3 construct: whole, on cells; also called RR213032
T3 sequence (Q63621 21-570): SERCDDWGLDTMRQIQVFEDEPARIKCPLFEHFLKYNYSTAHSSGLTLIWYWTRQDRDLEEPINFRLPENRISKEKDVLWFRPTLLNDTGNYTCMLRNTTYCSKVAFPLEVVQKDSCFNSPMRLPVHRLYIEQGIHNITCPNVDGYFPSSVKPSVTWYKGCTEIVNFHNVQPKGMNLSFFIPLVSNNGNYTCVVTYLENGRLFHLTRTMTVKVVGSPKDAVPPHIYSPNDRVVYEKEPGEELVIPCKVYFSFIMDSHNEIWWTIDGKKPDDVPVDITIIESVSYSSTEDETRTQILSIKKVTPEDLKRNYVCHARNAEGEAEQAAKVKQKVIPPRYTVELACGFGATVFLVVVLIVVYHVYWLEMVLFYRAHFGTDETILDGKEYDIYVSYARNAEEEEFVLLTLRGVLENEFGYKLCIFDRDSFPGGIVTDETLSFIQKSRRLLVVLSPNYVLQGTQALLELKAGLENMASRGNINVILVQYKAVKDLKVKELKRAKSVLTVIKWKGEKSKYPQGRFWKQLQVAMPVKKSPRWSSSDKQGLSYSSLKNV
Procedure: (§1) Staining for flow cytometry was performed in 1× cold PBS with 0.5% BSA. Primary antibodies (1 ug/ml) were incubated with live cells on ice for 30 minutes, after a brief wash, cells were incubated with Alexa Fluro® 488-conjugated anti-human IgG secondary antibody @1:1000 (709-546-149, Jackson ImmunoResearch). Acquisition of the data was performed on a MACSQuant® Flow Cytometers (Miltenyi Biotec) and analyzed with FlowJo software.

[7] = biological target: T4, mouse IL1RAP (Met1-Val570 plus Myc-DDK) on transfected 293 cells (Mus musculus, UniProt Q61730 21-570); experiment: flow cytometry on 293 cells expressing mouse IL1RAP (293-puro-mouseIL1RAP) vs 293T-puro [cont.]
T4 construct: whole, on cells; also called MR223729
T4 sequence (Q61730 21-570): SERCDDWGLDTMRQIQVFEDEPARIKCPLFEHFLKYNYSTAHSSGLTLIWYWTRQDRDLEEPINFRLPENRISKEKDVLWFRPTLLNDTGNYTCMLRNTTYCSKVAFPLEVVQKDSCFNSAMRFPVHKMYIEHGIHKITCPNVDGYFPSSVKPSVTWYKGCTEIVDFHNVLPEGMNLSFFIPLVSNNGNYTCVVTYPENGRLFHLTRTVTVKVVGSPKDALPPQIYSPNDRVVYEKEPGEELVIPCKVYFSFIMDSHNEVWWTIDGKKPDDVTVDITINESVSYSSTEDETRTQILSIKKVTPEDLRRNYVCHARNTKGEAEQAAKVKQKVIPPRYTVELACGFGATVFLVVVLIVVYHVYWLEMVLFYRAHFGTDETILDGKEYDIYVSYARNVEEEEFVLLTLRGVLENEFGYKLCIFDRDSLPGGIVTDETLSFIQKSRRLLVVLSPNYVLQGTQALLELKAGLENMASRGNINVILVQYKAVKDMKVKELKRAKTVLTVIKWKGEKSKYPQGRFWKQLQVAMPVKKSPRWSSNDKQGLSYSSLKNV
Procedure: as §1

[8] = biological target: T3, rat IL1RAP (Met1-Val570 plus Myc-DDK) …; experiment: flow cytometry on 293 cells expressing rat IL1RAP (293-puro-ratIL1RAP) vs 293T-puro
Procedure: as §1

[9] = biological target: T4, mouse IL1RAP (Met1-Val570 plus Myc-DDK) …; experiment: flow cytometry on 293 cells expressing mouse IL1RAP (293-puro-mouseIL1RAP) vs 293T-puro
Procedure: as §1

[10] = biological target: T3, rat IL1RAP (Met1-Val570 plus Myc-DDK) …; experiment: flow cytometry on 293 cells expressing rat IL1RAP (293-puro-ratIL1RAP) vs 293T-puro; 1 ug/ml antibody, Alexa 488 anti-human IgG secondary
Procedure: as §1

[11] = biological target: T2, huIL1RAP ECD recombinant protein; experiment: affinity for human IL1RAP (Octet); Table 7 prints 1.4 nM for the same antibody

B1: 37E10_15B5 (antibody, V domains shown)
VH: QVQLVESGGGVVQPGRSLRLSCAASGFTFRSHGMHWVRQAPGKGLEWVAVIWYDGSSEYYADSVKGRFTISRDNSKNTLYLQMNSLRAEDTAVYYCARENVYGSGWFFDYWGQGTLVTVSS
VL: EIVMTQSPATLSVSPGERASLSCRASQSVGSNLAWYQQRPGQAPRLLIFGASTRATGIPARFSGSRSGTEFTLTISSLQSEDFALYYCQQYNNWPPWTFGQGTKLEIK
notes: also called BFB759
[1]
  EC50 against IL-1alpha signaling, IL-1 reporter assay: < 1 nM
  EC50 against IL-1beta signaling, IL-1 reporter assay: < 1 nM
[2]
  EC50, inhibition of signalling by 0.5 ng/ml IL-1beta in HEK-Blue IL-1beta reporter cells (Abs. 620 nM): 0.15 nM
[3]
  EC50, inhibition of signalling by 0.5 ng/ml IL-1a (IL-1alpha) in the HEK-Blue IL-1 reporter assay (Abs. 620 nM): 0.19 nM
[4]
  EC50, inhibition of signalling by 0.5 ng/ml IL-33 in HEK-Blue IL-33 reporter cells (Abs. 620 nm); the curve levels off at about 0.4, not at 0: 0.32 nM
[5]
  Kd: 0.3 nM
[6]
  binding result: no binding (tested: 1 ug/ml)
[7]
  binding result: no binding (tested: 1 ug/ml)

B2: 44E5_15C5 (antibody, V domains shown)
VH: QVQLVESGGGVVQPGRSLRLSCAASGFTFRSHGMHWVRQAPGKGLEWVAVIWYDGSSDYYADSVKGRFTISRDNSKNTLFLQMNSLSAEDTAVYYCARENVYGSGWFFDYWGQGTLVTVSS
VL: EIVMTQSPATLSVSPGERASLSCRASQSVGSNLAWYQQKPGQAPRLLIFGASTRATGIPARFSGSRSGTEFTLTISSLQSEDFALYYCQQYNNWPPWTFGQGTKLEIK
[1]
  EC50 against IL-1alpha signaling, IL-1 reporter assay: < 1 nM
  EC50 against IL-1beta signaling, IL-1 reporter assay: < 1 nM
[2]
  EC50, inhibition of signalling by 0.5 ng/ml IL-1beta in HEK-Blue IL-1beta reporter cells (Abs. 620 nM): 0.17 nM
[3]
  EC50, inhibition of signalling by 0.5 ng/ml IL-1a (IL-1alpha) in the HEK-Blue IL-1 reporter assay (Abs. 620 nM): 0.18 nM
[4]
  EC50, inhibition of signalling by 0.5 ng/ml IL-33 in HEK-Blue IL-33 reporter cells (Abs. 620 nm); the curve levels off at about 0.4, not at 0: 0.44 nM
[5]
  Kd: 0.4 nM
[6]
  binding result: no binding (tested: 1 ug/ml)
[7]
  binding result: no binding (tested: 1 ug/ml)

B3: 16H2_17D2 (antibody, V domains shown)
VH: QVQLVESGGGVVQPGGSLRLSCAASGFTFSSHGMHWVRQAPGKGLEWVAVIWYDGSNKFYTDSVQGRFTISRDNSKNTLNLQMNSLRAEDTAVYYCAREGLRAGYYFDFWGQGTLVTVSS
VL: DIQMTQSPSSLSASVGDRVTITCRASQRISFYSNWYQQKPGKAPKLLIYAASSLQSGVPSRFSGSGSGTDFTLTISSLQPEDFATYFCQQSHSTPLTFGGGTKLEIK
[2]
  EC50, inhibition of signalling by 0.5 ng/ml IL-1beta in HEK-Blue IL-1beta reporter cells (Abs. 620 nM): 0.1 nM
[3]
  EC50, inhibition of signalling by 0.5 ng/ml IL-1a (IL-1alpha) in the HEK-Blue IL-1 reporter assay (Abs. 620 nM): 0.09 nM
[5]
  Kd: 0.2 nM
[8]
  binding result: no binding (tested: 1 ug/ml)
[9]
  binding result: no binding (tested: 1 ug/ml)

B4: 24G3_17C5 (antibody, V domains shown)
VH: EVQLLESGGGLVQRGGSLRLSCAASGFTFSSYAMSWVRQAPGKGLEWVSSISGSGDSTNYADSVKGRFTISRDNSKNTLHLQMNSLRAEDTAVYYCVRDYYYGMDVWGHGTTVTVSS
VL: EIVLTQSPATLSLSPGERATLSCRASQSVNSYLAWYQQKPGQAPRLLIYDASNRATGIPARFSGSGSGTDFTLTISSLEPEDFAVYYCQQRSYWPITFGQGTRLEIK
notes: Recombinant human antibody
[5]
  Kd: 37 nM
[10]
  binding result: binds

B5: 38E10_21C3 (antibody, V domains shown)
VH: EVQLLESGGGLVQPGGSLRLSCAASGFTFSNYAMTWVRQAPGKGLEWVSSISISRAGTYYADSVKGRFTISRDNSKNTLNLQMNSLRAEDTAEYYCAREYYYGMDVWGQGTTVTVSS
VL: EIVLTQSPATLSLSPGERATLSCRASQSVSSYLAWYQQKPGQTPRLLIYDASNRATGIPARFSGSGSGTDFTLTISSLETEDFAVYYCQQLINWPLTFGGGTKLEIK
notes: Recombinant human antibody
[5]
  Kd: 2 nM
[8]
  binding result: no binding (tested: 1 ug/ml)
[9]
  binding result: no binding (tested: 1 ug/ml)

B6: 32C12_21A4 (antibody, V domains shown)
VH: QVQLVESGGGVVQPGRSLRLSCAASGFTFRNYGIHWVRQAPGKGLEWVAVIWYDGSNKFYADSVKGRFTISRDNSKNTLYLQMNSLRVEDTAVYYCAREEGIAVAPFDYWGQGTLVTVSS
VL: DIQMTQSPSSLSASVGDRVAITCRANQSIASYLNWYQQKPGKAPKLLIYGASSLQNGVPSRFSGSGSRTDFTLTISSLQPEDFATYYCQQSYSTEITFGQGTRLEIK
[5]
  Kd: 1.4 nM
[11]
  Kd: 1 nM
[6]
  binding result: no binding (tested: 1 ug/ml)
[7]
  binding result: no binding (tested: 1 ug/ml)

Reference: patent US20260008856A1 (BLUEFIN BIOMEDICINE, published 2026)
